Molecular target: HARE(ΔM3) single-motif deletion cytoplasmic domain mutant lacking NPLY2519
Assay: co-IP; HARE variants precipitated from cell lysate (300 μg protein) with goat anti-V5 Ab (2 μg/ml) and Protein A/G Plus Agarose, 4°C; blot with anti-tERK1/2 Ab; cells incubated with or without 10 μg/ml (709 nM) UFH for 20 min; Lysis Buffer with 0.5% Nonidet P-40

Row | percent decrease of association (tERK:HARE ratio) against WT HARE | Substance
1 | 67% | ERK1 (of ERK1/2, p44/42) (from UniProt P27361 1-379) (enzyme)
2 | 67% | ERK2 (of ERK1/2, p44/42) (from UniProt P28482 1-360) (enzyme)

From article PMC4839745
